Consider 1 molecule from patent US20220356229A1.

The target of this assay is SARS-CoV-2 full length Spike protein, wild type, expressed on the surface of transiently transfected CHO cells (SARS-CoV-2), P0DTC2. Conditions: remark: other sources report otherwise.

B1: antibody 262 (antibody, V domains shown)
VH: QVQLVESGGGVVQPGRSLRLSCAASGFTFSSYAMHWVRQAPGKGLEWVAVISYDGSNKYYADSVKGRFTISRDNSKNTLYLQMNSLRAEDTAVYYCARDGGELLWFGELDYYGMDVWGQGTTVTVSS
VL: SYELTQPSSVSVSPGQTARITCSGDVLAKKYARWFQQKPGQAPVLVIYKDSERPSGIPERFSGSSSGTTVTLTISGAQVEDEADYYCYSAADNNRGVFGGGTKLTVL
Regarding B1, the median fluorescence intensity, fold over isotype control (fold over isotype) was determined as 0.89.
